Data on one molecule can be found in publication PMC9785488, “EBF1 Negatively Regulates Brassinosteroid-Induced Apical Hook Development and Cell Elongation through Promoting BZR1 Degradation” (International Journal of Molecular Sciences, 2022).

This experiment addresses T1, MBP-EBF1 (Arabidopsis thaliana, UniProt Q9SKK0 1-628).
T1 construct: EBF1, Arabidopsis thaliana, AT2G25490; source: purified using amylose resin
T1 sequence (looked up): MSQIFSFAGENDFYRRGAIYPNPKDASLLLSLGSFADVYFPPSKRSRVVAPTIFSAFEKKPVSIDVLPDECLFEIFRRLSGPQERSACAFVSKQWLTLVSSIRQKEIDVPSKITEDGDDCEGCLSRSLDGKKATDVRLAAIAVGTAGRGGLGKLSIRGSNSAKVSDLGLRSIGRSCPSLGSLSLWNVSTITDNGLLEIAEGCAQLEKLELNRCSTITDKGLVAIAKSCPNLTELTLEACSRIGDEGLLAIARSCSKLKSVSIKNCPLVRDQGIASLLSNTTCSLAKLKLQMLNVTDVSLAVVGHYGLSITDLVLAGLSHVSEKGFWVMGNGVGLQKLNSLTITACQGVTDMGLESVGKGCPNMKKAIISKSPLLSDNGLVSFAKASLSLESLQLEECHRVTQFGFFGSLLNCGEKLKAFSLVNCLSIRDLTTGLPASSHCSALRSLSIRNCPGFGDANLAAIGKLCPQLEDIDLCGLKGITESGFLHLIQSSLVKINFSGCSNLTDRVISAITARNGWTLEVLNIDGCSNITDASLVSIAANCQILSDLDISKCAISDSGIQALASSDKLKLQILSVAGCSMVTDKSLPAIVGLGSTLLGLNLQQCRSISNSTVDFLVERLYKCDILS
In words: pull-down; glutathione beads with 1 µg GST-BZR1 incubated with 1 µg MBP or MBP-EBF1; 20 mM Tris-HCl pH 7.5, 100 mM NaCl, 1 mM EDTA; washed 10 times with 300 mM NaCl, 0.5% Triton X-100; immunoblot with anti-MBP. The note with it: both partners purified.

B1: GST-BZR1 (natural protein, Arabidopsis thaliana, UniProt Q8S307 1-336, looked up)
chain: MTSDGATSTSAAAAAAAAAAARRKPSWRERENNRRRERRRRAVAAKIYTGLRAQGDYNLPKHCDNNEVLKALCVEAGWVVEEDGTTYRKGCKPLPGEIAGTSSRVTPYSSQNQSPLSSAFQSPIPSYQVSPSSSSFPSPSRGEPNNNMSSTFFPFLRNGGIPSSLPSLRISNSCPVTPPVSSPTSKNPKPLPNWESIAKQSMAIAKQSMASFNYPFYAVSAPASPTHRHQFHTPATIPECDESDSSTVDSGHWISFQKFAQQQPFSASMVPTSPTFNLVKPAPQQMSPNTAAFQEIGQSSEFKFENSQVKPWEGERIHDVGMEDLELTLGNGKARG
notes: BZR1, Arabidopsis thaliana, At1G75080; also called glutathione S-transferase (GST) fusion protein GST-BZR1; source: bacteria, purified (glutathione beads)
As for B1, the binding result was “binds”.
